Earlier results, collected in paper PMC4715488.
pKd: −log10 of the molar value.

Target: GPP130 (Homo sapiens) (UniProt O00461)
UniProt O00461, sequence (O00461 2-696): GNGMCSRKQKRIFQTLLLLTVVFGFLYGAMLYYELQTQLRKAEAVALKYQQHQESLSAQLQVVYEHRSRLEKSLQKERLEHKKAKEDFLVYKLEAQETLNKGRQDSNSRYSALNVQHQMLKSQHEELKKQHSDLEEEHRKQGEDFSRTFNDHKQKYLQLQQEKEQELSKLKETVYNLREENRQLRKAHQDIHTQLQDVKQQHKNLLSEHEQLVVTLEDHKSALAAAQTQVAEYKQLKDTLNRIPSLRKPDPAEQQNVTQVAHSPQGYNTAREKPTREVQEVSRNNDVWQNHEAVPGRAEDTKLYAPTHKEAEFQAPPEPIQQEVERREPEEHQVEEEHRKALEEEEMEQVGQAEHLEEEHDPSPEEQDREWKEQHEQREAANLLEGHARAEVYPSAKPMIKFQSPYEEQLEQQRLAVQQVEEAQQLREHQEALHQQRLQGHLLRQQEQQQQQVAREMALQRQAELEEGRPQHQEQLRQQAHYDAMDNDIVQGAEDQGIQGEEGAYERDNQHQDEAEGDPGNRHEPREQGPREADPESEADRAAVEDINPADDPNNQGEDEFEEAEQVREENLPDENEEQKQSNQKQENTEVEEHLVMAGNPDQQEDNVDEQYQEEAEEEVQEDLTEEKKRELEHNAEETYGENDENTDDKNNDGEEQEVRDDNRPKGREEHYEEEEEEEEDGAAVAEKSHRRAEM

## Shiga toxin 1 B subunit (STx1B) (from UniProt Q32GM0)
  pKd: 6.82
